First the molecules themselves.
B1: cr342 (nucleic acid)
guide: GTTTAAGAGCTAAGCTGGAAACAGCATAGCAAGTTTAAATAAGGCTAGTCCGTTATTAACTTGATAAAGTGGCACCGAGTCGGTGCT
modifications: listed as DNA, chemistry not fully specified
B2: cr098 (nucleic acid)
guide: GTTTACGTGCTAAGCTGGAAACAGCATAGCAAGTTTAAATAAGGCTAGTCCGTTATCAACTTGAAAAAGTGGCACCGAGTCGGTGCT
modifications: listed as DNA, chemistry not fully specified
B3: cr814 (nucleic acid)
guide: GTTTAAGAGCTAAGCTGGAAACAGCATAGCAAGTTTAAATAAGGCTAGTCCGTTATCAACTTGAAAAAGTGGGTCCGAGTCGGACCT
modifications: listed as DNA, chemistry not fully specified
B4: cr427 (nucleic acid)
guide: GTTTAAGAGCTAAGCTGGAAACAGCATAGCAAGTTTAAATAAGGCTAGTCCGTTATAAACTTGAAAAAGTGGCACCGAATCGGTGCT
modifications: listed as DNA, chemistry not fully specified
B5: cr959 (nucleic acid)
guide: GTTTAAGAGCTAAGCTGGAAACAGCATAGCAAGTTTAAATAAGGCTAGTCCGTTATCAATTCGAAATACTGGCACCGAGTCGGTGCT
modifications: listed as DNA, chemistry not fully specified
B6: cr940 (nucleic acid)
guide: GTTTAAGAGCTAAGCTGGAAACAGCATAGCAAGCTTAAATAAGGCTAGTCCGTTATCAACGTGAAAACGTGGCACCGAGTCGGTGCT
modifications: listed as DNA, chemistry not fully specified
B7: cr430 (nucleic acid)
guide: GTTTAAGAGCTAAGCTGGAAACAGCATAGCAAGTTTAAATAAGACTAGTTCGTTATCAAATTGAAAAATTGGCACAGAGTCTGTGCT
modifications: listed as DNA, chemistry not fully specified
B8: cr724 (nucleic acid)
guide: GTTTAAGAGCTAAGCTGGAAACAGCATAGCAAGTTTAAATAAGGCTAGTCCGTTATCGACTTGAAAAAGTGGCACCGAGTCGGTGCT
modifications: listed as DNA, chemistry not fully specified
B9: cr166 (nucleic acid)
guide: GTTTAAGAGCTAAGCTGGAAACAGCATAGCAAGCTTAAATAAGGCTAGTCCGTTATCAACTTGAAAAAGTGGTACCGAGTCGGTACT
modifications: listed as DNA, chemistry not fully specified
B10: cr511 (nucleic acid)
guide: GTTTAAGAGCTAAGCTGGAAACAGCATTGCCAGTTTAAATAAGGCTAGTCCGTTATCAACTTGAAAAAGTGGCACCGCGTCGGTGCT
modifications: listed as DNA, chemistry not fully specified
B11: cr150 (nucleic acid)
guide: GTTTAAGAGCTAAGCTGGAAACAGCATAGCAAGTTTAAATAAGGCTAGTCCGTTATCAACTTGAAAAAGTGGCAGCGAGTCGGTGCT
modifications: listed as DNA, chemistry not fully specified
B12: cr072 (nucleic acid)
guide: GTCTAAGTGCTAAGCTGGAAACAGCATAGCAAGTTTAAATAAGGCTAGTCCGTTATCAACTTGAAAAAGTGGCACCGAGTCGGTGCT
modifications: listed as DNA, chemistry not fully specified

The first data set has as its system K562 CRISPRi cells. The data set is described as follows: Constant region variant library pooled growth screen, K562. It is filed as cell-based, human. Particulars: sgRNA constant region variants; activity relative to the original, un-modified constant region cr995. The gist of the method:
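Pooled library transduced into K562 CRISPRi cells in duplicate, puromycin-selected, grown at >2000× coverage and sampled after 4 to 8 days. Phenotypes per targeting sequence:constant region pair were normalized to the unmodified-scaffold pairing to give relative activity.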
As to B1, the Mean relative activity is on record as 0.5422.
Still for that read-out and setting: with B2 the figure was 0.534; with B3, 1.048; with B4, 0.5383.
Still for that read-out and setting: the value for B5 was 0.5251; that for B6 was 0.5399; that for B7 was 0.5328.

The data set is the same for the next values; noted with them: sgRNA constant region variants; relative to the original, un-modified constant region cr995; CRISPRi.
B8 showed a Mean relative activity of 0.5177.
In the case of B9, the Mean relative activity came out at 0.5245.
The same measure, in the same setting: with B10 the figure was 0.5247; with B11, 0.523.
Same read-out and setting: the value for B12 was 0.5236.
